Changes are numbered by the printed parent chain. In names and notes the source's numbering stands.
How the values were obtained:
Type in all cases: cell-based, human
[1] = tested on: wild-type and variant SNAP-GIPR; experiment: Single-concentration GIP cAMP response by HTRF in AD293 cells; settings: Fig S3F, HTRF, mean;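 further: ratio to experiment-wide average response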
Description: (§1) All variants were tested in parallel on each occasion to control for transfection efficiency differences between experiments.

[2] = tested on: wild-type and variant SNAP-GIPR; experiment: cADDis cAMP imaging in AD293 cells, ensemble, expression-matched and per decile; settings: Fig S3F, cADDis, mean;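 further: Ensemble cells as % of IBMX/FSK response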
Method in brief: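 AD293 cells were transfected with SNAP-GIPR constructs and cotransduced with the cADDis Green Up cAMP sensor, then labeled after 24 h with 500 nM SNAP-Surface Alexa Fluor 647. Per-cell cADDis intensity was tracked at 37°C in KRBH with 6 mM glucose and 0.1% BSA.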

[3] = tested on: wild-type and variant SNAP-GIPR; experiment: Surface SNAP-GIPR expression (SNAP-tag labelling) in INS-1 cells; settings: Fig 4G; Mean
Method in brief: (§2)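 Read-out: whole-cell fluorescence of surface-only SNAP label (Alexa Fluor 647, 500 nM, 10 min, RT), wide-field 20X, several FOVs per well. Flat-field corrected, phase-contrast masked, nontransfected-well signal subtracted; normalized to experiment mean or wild-type.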

[4] = tested on: wild-type and variant SNAP-GIPR; experiment: Surface SNAP-GIPR expression (SNAP-tag labelling) in AD293 cells; settings: for AD293 Surface: Fig S3E, mean; for Surface SNAP-GIPR expression: sheet Fig 1C;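 on all read-outs here: scaled to the experimental average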
Method in brief: as §2

[5] = tested on: wild-type and variant SNAP-GIPR; experiment: Constitutive and agonist-mediated internalization, reversible SNAP-tag labelling, INS-1 cells; parameters: key to Internalisation, GIP-only / Internalisation, Vehicle / Internalisation, +GIP: % internalization: residual fluorescence after Mesna vs pre-Mesna; settings: Mean; for +GIP internalisation (100 nM) / GIP-specific internalisation (100 nM) / Constitutive internalisation (100 nM): Fig 4G; for +GIP internalisation (100 nM) / GIP-specific internalisation (100 nM): GIP 100 nM; for Internalisation, +GIP / Internalisation, GIP-only / Internalisation, Vehicle: Fig S4C, INS-1
Method in brief: (§3)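 Percentage internalization is read as the fraction of specific SNAP fluorescence that survives Mesna stripping, compared with the image taken before Mesna. Wells are imaged in TNE buffer at pH 8.6 and again after 10 min.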

[6] = tested on: wild-type and variant SNAP-GIPR; experiment: Constitutive and agonist-mediated internalization, reversible SNAP-tag labelling, AD293 cells; parameters: key to Internalisation, Vehicle / Internalisation, +GIP / Internalisation, GIP-only: % internalization: residual fluorescence after Mesna vs pre-Mesna; Surface expression: unit not given here; settings: Mean; for +GIP internalisation (100 nM) / GIP-specific internalisation (100 nM) / Constitutive internalisation (100 nM) / Surface expression: Fig 4E; for +GIP internalisation (100 nM) / GIP-specific internalisation (100 nM): GIP 100 nM; for Internalisation, +GIP / Internalisation, GIP-only / Internalisation, Vehicle: Fig S4C, AD293
Method in brief: as §3

[7] = tested on: wild-type and variant SNAP-GIPR; experiment: Single-concentration GIP cAMP response by HTRF in INS-1 cells; settings: Fig S3E, mean
Description: as §1

[8] = column repeated, paired with cAMP 100 nM

B1: R341P (protein, UniProt P48546 22-466, looked up, variant R341P)
Gastric inhibitory …: RAETGSKGQTAGELYQRWERYRRECQETLAAAEPPSGLACNGSFDMYVCWDYAAPNATARASCPWYLPWHHHVAAGFVLRQCGSDGQWGLWRDHTQCENPEKNEAFLDQRLILERLQVMYTVGYSLSLATLLLALLILSLFRRLHCTRNYIHINLFTSFMLRAAAILSRDRLLPRPGPYLGDQALALWNQALAACRTAQIVTQYCVGANYTWLLVEGVYLHSLLVLVGGSEEGHFRYYLLLGWGAPALFVIPWVIVRYLYENTQCWERNEVKAIWWIIRTPILMTILINFLIFIRILGILLSKLRTRQMRCRDYRLRLAPSTLTLVPLLGVHEVVFAPVTEEQARGALRFAKLGFEIFLSSFQGFLVSVLYCFINKEVQSEIRRGWHHCRLRRSLGEEQRQLPERAFRALPSGSGPGEVPTSRGLSSGTLPGPGNEASRELESYC
[1]
  AD293 100 pM HTRF: 0.001435
  AD293 100 nM HTRF: 0.1915
[2]
  AD293 100 pM cADDis: 0.6137
  AD293 100 nM cADDis: 9.179
[3]
  Surface expression: 0.2942
[4]; [8]
  AD293 Surface: 0.2494
[4]; paired with cAMP 100 pM
  AD293 Surface: 0.2494
[4]; replicate 1
  Surface SNAP-GIPR expression: 0.3004
[4]; replicate 2
  Surface SNAP-GIPR expression: 0.416
[4]; replicate 3
  Surface SNAP-GIPR expression: 0.1222
[4]; replicate 4
  Surface SNAP-GIPR expression: 0.3179
[4]; replicate 5
  Surface SNAP-GIPR expression: 0.375
[4]; replicate 6
  Surface SNAP-GIPR expression: 0.2191
[4]; replicate 7
  Surface SNAP-GIPR expression: 0.3629
[4]; replicate 8
  Surface SNAP-GIPR expression: 0.2975
[4]; replicate 9
  Surface SNAP-GIPR expression: 0.196
[4]; replicate 10
  Surface SNAP-GIPR expression: 0.2642
[4]; replicate 11
  Surface SNAP-GIPR expression: 0.31
[4]; replicate 12
  Surface SNAP-GIPR expression: 0.2856
[4]; replicate 13
  Surface SNAP-GIPR expression: 0.6221
[4]; replicate 14
  Surface SNAP-GIPR expression: 0.2061
[4]; replicate 15
  Surface SNAP-GIPR expression: 0.2357
[4]; replicate 16
  Surface SNAP-GIPR expression: 0.2383
[4]; replicate 17
  Surface SNAP-GIPR expression: 0.211
[4]; replicate 18
  Surface SNAP-GIPR expression: 0.144
[4]; replicate 19
  Surface SNAP-GIPR expression: 0.3559
[4]; replicate 20
  Surface SNAP-GIPR expression: 0.2316
[4]; replicate 21
  Surface SNAP-GIPR expression: 0.2368
[4]; replicate 22
  Surface SNAP-GIPR expression: 0.1783
[4]; replicate 23
  Surface SNAP-GIPR expression: 0.2272
[4]; replicate 24
  Surface SNAP-GIPR expression: 0.2138
[4]; replicate 25
  Surface SNAP-GIPR expression: 0.2383
[4]; replicate 26
  Surface SNAP-GIPR expression: 0.2262
[4]; replicate 27
  Surface SNAP-GIPR expression: 0.2274
[4]; replicate 28
  Surface SNAP-GIPR expression: 0.2002
[4]; replicate 29
  Surface SNAP-GIPR expression: 0.197
[4]; replicate 30
  Surface SNAP-GIPR expression: 0.3017
[4]; replicate 31
  Surface SNAP-GIPR expression: 0.1334
[4]; replicate 32
  Surface SNAP-GIPR expression: 0.2186
[4]; replicate 33
  Surface SNAP-GIPR expression: 0.2522
[4]; replicate 34
  Surface SNAP-GIPR expression: 0.2282
[4]; replicate 35
  Surface SNAP-GIPR expression: 0.2532
[4]; replicate 36
  Surface SNAP-GIPR expression: 0.1015
[4]; replicate 37
  Surface SNAP-GIPR expression: 0.1446
[4]; replicate 38
  Surface SNAP-GIPR expression: 0.2212
[4]; replicate 39
  Surface SNAP-GIPR expression: 0.2317
[4]; replicate 40
  Surface SNAP-GIPR expression: 0.2075
[4]; replicate 41
  Surface SNAP-GIPR expression: 0.2741
[5]
  +GIP internalisation (100 nM): 0.1423
  GIP-specific internalisation (100 nM): 0.02008
  Constitutive internalisation (100 nM): 0.1222
  Internalisation, +GIP: 48.645
  Internalisation, GIP-only: 6.527
  Internalisation, Vehicle: 42.1183
[6]
  +GIP internalisation (100 nM): 0.1278
  GIP-specific internalisation (100 nM): 0.02136
  Constitutive internalisation (100 nM): 0.1065
  Surface expression: 0.1733
  Internalisation, +GIP: 72.1567
  Internalisation, GIP-only: 15.7264
  Internalisation, Vehicle: 56.4303
[7]
  INS-1 cAMP (100 nM): -0.2249

B2: R136W (protein, UniProt P48546 22-466, looked up, variant R136W)
Gastric inhibitory …: B1 Gastric inhibitory … with R115W, P320R
[1]
  AD293 100 pM HTRF: 0.0806
  AD293 100 nM HTRF: 1.324
[2]
  AD293 100 pM cADDis: 19.5296
  AD293 100 nM cADDis: 38.38
[3]
  Surface expression: 1.406
[4]; [8]
  AD293 Surface: 1.539
[4]; paired with cAMP 100 pM
  AD293 Surface: 1.539
[4]; replicate 1
  Surface SNAP-GIPR expression: 1.301
[4]; replicate 2
  Surface SNAP-GIPR expression: 1.896
[4]; replicate 3
  Surface SNAP-GIPR expression: 1.558
[4]; replicate 4
  Surface SNAP-GIPR expression: 1.426
[4]; replicate 5
  Surface SNAP-GIPR expression: 1.728
[4]; replicate 6
  Surface SNAP-GIPR expression: 1.162
[4]; replicate 7
  Surface SNAP-GIPR expression: 1.369
[4]; replicate 8
  Surface SNAP-GIPR expression: 1.722
[4]; replicate 9
  Surface SNAP-GIPR expression: 1.795
[4]; replicate 10
  Surface SNAP-GIPR expression: 1.62
[4]; replicate 11
  Surface SNAP-GIPR expression: 1.44
[4]; replicate 12
  Surface SNAP-GIPR expression: 1.625
[4]; replicate 13
  Surface SNAP-GIPR expression: 1.681
[4]; replicate 14
  Surface SNAP-GIPR expression: 1.394
[4]; replicate 15
  Surface SNAP-GIPR expression: 1.54
[4]; replicate 16
  Surface SNAP-GIPR expression: 1.63
[4]; replicate 17
  Surface SNAP-GIPR expression: 1.488
[4]; replicate 18
  Surface SNAP-GIPR expression: 1.722
[4]; replicate 19
  Surface SNAP-GIPR expression: 2.073
[4]; replicate 20
  Surface SNAP-GIPR expression: 1.443
[4]; replicate 21
  Surface SNAP-GIPR expression: 1.607
[4]; replicate 22
  Surface SNAP-GIPR expression: 1.548
[4]; replicate 23
  Surface SNAP-GIPR expression: 1.562
[4]; replicate 24
  Surface SNAP-GIPR expression: 1.636
[4]; replicate 25
  Surface SNAP-GIPR expression: 1.259
[4]; replicate 26
  Surface SNAP-GIPR expression: 1.57
[4]; replicate 27
  Surface SNAP-GIPR expression: 1.295
[4]; replicate 28
  Surface SNAP-GIPR expression: 1.198
[4]; replicate 29
  Surface SNAP-GIPR expression: 1.582
[4]; replicate 30
  Surface SNAP-GIPR expression: 1.517
[4]; replicate 31
  Surface SNAP-GIPR expression: 1.447
[4]; replicate 32
  Surface SNAP-GIPR expression: 1.457
[4]; replicate 33
  Surface SNAP-GIPR expression: 1.855
[4]; replicate 34
  Surface SNAP-GIPR expression: 1.376
[4]; replicate 35
  Surface SNAP-GIPR expression: 1.615
[4]; replicate 36
  Surface SNAP-GIPR expression: 1.418
[4]; replicate 37
  Surface SNAP-GIPR expression: 1.346
[4]; replicate 38
  Surface SNAP-GIPR expression: 1.685
[4]; replicate 39
  Surface SNAP-GIPR expression: 1.551
[4]; replicate 40
  Surface SNAP-GIPR expression: 1.483
[4]; replicate 41
  Surface SNAP-GIPR expression: 1.492
[5]
  +GIP internalisation (100 nM): 0.6838
  GIP-specific internalisation (100 nM): 0.1408
  Constitutive internalisation (100 nM): 0.543
  Internalisation, +GIP: 46.5117
  Internalisation, GIP-only: 9.467
  Internalisation, Vehicle: 37.045
[6]
  +GIP internalisation (100 nM): 0.7747
  GIP-specific internalisation (100 nM): 0.1529
  Constitutive internalisation (100 nM): 0.6218
  Surface expression: 1.49
  Internalisation, +GIP: 52.0458
  Internalisation, GIP-only: 10.2879
  Internalisation, Vehicle: 41.7579
[7]
  INS-1 cAMP (100 nM): 1.164
